This data set can be described thus: total protein half-life in vivo (active degradation + dilution); higher = more stable protein.
The mark [1] stands for this setting: E. coli NCM3722 delta-clpP delta-lon delta-hslV, growth: N-lim chemostat, doubling time 6 h.
Setting [2] is: E. coli NCM3722 delta-clpP, growth: N-lim chemostat, doubling time 6 h.
The mark [3] stands for this setting: E. coli NCM3722 delta-hslV, growth: N-lim chemostat, doubling time 6 h.
[4] abbreviates: E. coli NCM3722 delta-lon, growth: N-lim chemostat, doubling time 6 h.
Where [5] appears, read: E. coli NCM3722 delta-smpB, growth: N-lim chemostat, doubling time 6 h.
Setting [6] is: wild type E. coli NCM3722, growth: C-lim chemostat, doubling time 3 h.
Setting [7] is: wild type E. coli NCM3722, growth: C-lim chemostat, doubling time 6 h.
[8] abbreviates: wild type E. coli NCM3722, growth: C-lim chemostat, doubling time 12 h.
Where [9] appears, read: wild type E. coli NCM3722, growth: N-lim chemostat, doubling time 6 h.
Where [10] appears, read: wild type E. coli NCM3722, growth: N-lim chemostat, doubling time 12 h.
Where [11] appears, read: wild type E. coli NCM3722, growth: P-lim chemostat, doubling time 6 h.
Setting [12] is: wild type E. coli NCM3722, growth: P-lim chemostat, doubling time 12 h.

± gives the standard deviation of the averaged measurements.

Regarding “MRIFVYGSLRHKQGNSHWMTNAQLLGDFSIDNYQLYSLGHYPGAVPGNGTVHGEVYRIDNATLAELDALRTRGGEYARQLIQTPYGSAWMYVYQRPVDGLKLIESGDWLDRDK [P0AE48]”, the “total protein half-life in vivo” value under setting [1] is 5.12 ± 0.42 h; the “total protein half-life in vivo” value under setting [2] turned out to be 4.63 ± 0.19 h; the “total protein half-life in vivo” value under setting [3] was determined as 4.95 ± 0.15 h; the “total protein half-life in vivo” value under setting [4] is 5.345 ± 0.014 h; the “total protein half-life in vivo” value under setting [5] came out at 5 ± 0.3 h; the “total protein half-life in vivo” value under setting [6] is 2.57 ± 0.21 h. For the same sequence, the “total protein half-life in vivo” value under setting [7] came out at 5.316 ± 0.012 h; the “total protein half-life in vivo” value under setting [8] was 8.87 ± 0.3 h; the “total protein half-life in vivo” value under setting [9] stood at 4.49 ± 0.61 h; the “total protein half-life in vivo” value under setting [10] came to 7.76 ± 0.7 h; the “total protein half-life in vivo” value under setting [11] was 5.27 ± 0.36 h; the “total protein half-life in vivo” value under setting [12] is 11.5 ± 1.6 h.

In the case of “MAIEIKVPDIGADEVEITEILVKVGDKVEAEQSLITVEGDKASMEVPSPQAGIVKEIKVSVGDKTQTGALIMIFDSADGAADAAPAQAEEKKEAAPAAAPAAAAAKDVNVPDIGSDEVEVTEILVKVGDKVEAEQSLITVEGDKASMEVPAPFAGTVKEIKVNVGDKVSTGSLIMVFEVAGEAGAAAPAAKQEAAPAAAPAPAAGVKEVNVPDIGGDEVEVTEVMVKVGDKVAAEQSLITVEGDKASMEVPAPFAGVVKELKVNVGDKVKTGSLIMIFEVEGAAPAAAPAKQEAAAPAPAAKAEAPAAAPAAKAEGKSEFAENDAYVHATPLIRRLAREFGVNLAKVKGTGRKGRILREDVQAYVKEAIKRAEAAPAATGGGIPGMLPWPKVDFSKFGEIEEVELGRIQKISGANLSRNWVMIPHVTHFDKTDITELEAFRKQQNEEAAKRKLDVKITPVVFIMKAVAAALEQMPRFNSSLSEDGQRLTLKKYINIGVAVDTPNGLVVPVFKDVNKKGIIELSRELMTISKKARDGKLTAGEMQGGCFTISSIGGLGTTHFAPIVNAPEVAILGVSKSAMEPVWNGKEFVPRLMLPISLSFDHRVIDGADGARFITIINNTLSDIRRLVM”, the “total protein half-life in vivo” value runs as follows: under setting [1], 6.49 ± 0.23 h; under setting [2], 6.08 ± 0.4 h; under setting [3], 6.48 ± 0.081 h; under setting [4], 6.36 ± 0.067 h; under setting [5], 5.78 ± 0.37 h; under setting [6], 3.08 ± 0.092 h. Moreover, the “total protein half-life in vivo” value turned out to be 5.778 ± 0.018 h under setting [7]; 10.6 ± 0.66 h under setting [8]; 6.19 ± 0.27 h under setting [9]; 12.3 ± 0.84 h under setting [10]; 6.07 ± 0.26 h under setting [11]; 12.5 ± 0.53 h under setting [12].

Consider “MKKIICLVITLLMTLPVYAKLTAHEEARINAMLEGLAQKKDLIFVRNGDEHTCYEAVSHLRLKLGNTRNRIDTAEQFIDKVASSSSITGKPYIVKIPGKSDENAQPFLHALIAQTDKTVPAEGN”, for which, under setting [8], the “total protein half-life in vivo” value worked out at 3.18 h.

On to “MIVLVTGATAGFGECITRRFIQQGHKVIATGRRQERLQELKDELGDNLYIAQLDVRNRAAIEEMLASLPAEWCNIDILVNNAGLALGMEPAHKASVEDWETMIDTNNKGLVYMTRAVLPGMVERNHGHIINIGSTAGSWPYAGGNVYGATKAFVRQFSLNLRTDLHGTAVRVTDIEPGLVGGTEFSNVRFKGDDGKAEKTYQNTVALTPEDVSEAVWWVSTLPAHVNINTLEMMPVTQSYAGLNVHRQ”, for which the “total protein half-life in vivo” value under setting [1] turned out to be 5.86 ± 0.16 h; the “total protein half-life in vivo” value under setting [3] was found to be 6.26 ± 1.3 h; the “total protein half-life in vivo” value under setting [4] was determined as 6.57 ± 1.4 h; the “total protein half-life in vivo” value under setting [5] is 4.72 ± 0.53 h; the “total protein half-life in vivo” value under setting [8] came out at 10.8 ± 0.87 h; the “total protein half-life in vivo” value under setting [9] is 4.82 ± 0.56 h. Further, the “total protein half-life in vivo” value came out at 8.94 ± 0.42 h under setting [10], 6.44 ± 0.14 h under setting [11] and 11.6 ± 1.9 h under setting [12].

For “MKQTVAAYIAKTLESAGVKRIWGVTGDSLNGLSDSLNRMGTIEWMSTRHEEVAAFAAGAEAQLSGELAVCAGSCGPGNLHLINGLFDCHRNHVPVLAIAAHIPSSEIGSGYFQETHPQELFRECSHYCELVSSPEQIPQVLAIAMRKAVLNRGVSVVVLPGDVALKPAPEGATMHWYHAPQPVVTPEEEELRKLAQLLRYSSNIALMCGSGCAGAHKELVEFAGKIKAPIVHALRGKEHVEYDNPYDVGMTGLIGFSSGFHTMMNADTLVLLGTQFPYRAFYPTDAKIIQIDINPASIGAHSKVDMALVGDIKSTLRALLPLVEEKADRKFLDKALEDYRDARKGLDDLAKPSEKAIHPQYLAQQISHFAADDAIFTCDVGTPTVWAARYLKMNGKRRLLGSFNHGSMANAMPQALGAQATEPERQVVAMCGDGGFSMLMGDFLSVVQMKLPVKIVVFNNSVLGFVAMEMKAGGYLTDGTELHDTNFARIAEACGITGIRVEKASEVDEALQRAFSIDGPVLVDVVVAKEELAIPPQIKLEQAKGFSLYMLRAIISGRGDEVIELAKTNWLR”, the “total protein half-life in vivo” value is, setting by setting: under setting [1], 5.5 ± 0.51 h; under setting [2], 5.2 ± 0.97 h; under setting [3], 4.77 ± 0.08 h; under setting [4], 5.321 ± 0.051 h; under setting [5], 4.71 ± 0.4 h; under setting [6], 3.19 ± 0.15 h. In addition, the “total protein half-life in vivo” value is, setting by setting: under setting [7], 5.59 ± 0.21 h; under setting [8], 11.2 ± 2.6 h; under setting [9], 4.7 ± 0.064 h; under setting [10], 7.734 ± 0.064 h; under setting [11], 5.614 ± 0.02 h; under setting [12], 11.6 ± 0.17 h.

As to “MKTLGEFIVEKQHEFSHATGELTALLSAIKLGAKIIHRDINKAGLVDILGASGAENVQGEVQQKLDLFANEKLKAALKARDIVAGIASEEEDEIVVFEGCEHAKYVVLMDPLDGSSNIDVNVSVGTIFSIYRRVTPVGTPVTEEDFLQPGNKQVAAGYVVYGSSTMLVYTTGCGVHAFTYDPSLGVFCLCQERMRFPEKGKTYSINEGNYIKFPNGVKKYIKFCQEEDKSTNRPYTSRYIGSLVADFHRNLLKGGIYLYPSTASHPDGKLRLLYECNPMAFLAEQAGGKASDGKERILDIIPETLHQRRSFFVGNDHMVEDVERFIREFPDA [P0A993]”, the “total protein half-life in vivo” value under setting [1] worked out at 4.22 ± 0.099 h; the “total protein half-life in vivo” value under setting [2] was determined as 3.02 ± 0.088 h; the “total protein half-life in vivo” value under setting [3] worked out at 3.76 ± 0.66 h; the “total protein half-life in vivo” value under setting [4] turned out to be 3.84 ± 0.51 h; the “total protein half-life in vivo” value under setting [5] was 3.21 ± 0.12 h; the “total protein half-life in vivo” value under setting [6] amounted to 2.93 ± 0.38 h. Moreover, the “total protein half-life in vivo” value by setting is: under setting [7], 5.02 ± 0.3 h; under setting [8], 8.6 ± 0.59 h; under setting [9], 3.19 ± 0.06 h; under setting [10], 4.68 ± 0.09 h; under setting [11], 5.796 ± 0.011 h; under setting [12], 10.6 ± 0.24 h.

As to “MKKQTQLLSALALSVGLTLSASFQAVASIPGQVADQAPLPSLAPMLEKVLPAVVSVRVEGTASQGQKIPEEFKKFFGDDLPDQPAQPFEGLGSGVIINASKGYVLTNNHVINQAQKISIQLNDGREFDAKLIGSDDQSDIALLQIQNPSKLTQIAIADSDKLRVGDFAVAVGNPFGLGQTATSGIVSALGRSGLNLEGLENFIQTDASINRGNSGGALLNLNGELIGINTAILAPGGGSVGIGFAIPSNMARTLAQQLIDFGEIKRGLLGIKGTEMSADIAKAFNLDVQRGAFVSEVLPGSGSAKAGVKAGDIITSLNGKPLNSFAELRSRIATTEPGTKVKLGLLRNGKPLEVEVTLDTSTSSSASAEMITPALEGATLSDGQLKDGGKGIKIDEVVKGSPAAQAGLQKDDVIIGVNRDRVNSIAEMRKVLAAKPAIIALQIVRGNESIYLLMR”, the “total protein half-life in vivo” value by setting is: under setting [1], 6.2 ± 0.32 h; under setting [3], 6.47 ± 0.17 h; under setting [4], 6.3328 ± 0.0043 h; under setting [5], 5.56 ± 0.2 h; under setting [6], 3.05 ± 0.14 h; under setting [7], 6.305 ± 0.0077 h. The “total protein half-life in vivo” value by setting is: under setting [8], 10 ± 0.31 h; under setting [9], 6.06 ± 0.2 h; under setting [10], 11.7 ± 0.17 h; under setting [11], 5.48 ± 0.15 h; under setting [12], 10.6 ± 0.71 h.

These data come from the supplement of paper PMC11246515.
